Measured values published in PMC8627417 (Journal for Immunotherapy of Cancer, 2021).

Biological target: receptor of advanced glycation end products (RAGE) (UniProt Q15109 23-404)
Sequence (Q15109 23-404): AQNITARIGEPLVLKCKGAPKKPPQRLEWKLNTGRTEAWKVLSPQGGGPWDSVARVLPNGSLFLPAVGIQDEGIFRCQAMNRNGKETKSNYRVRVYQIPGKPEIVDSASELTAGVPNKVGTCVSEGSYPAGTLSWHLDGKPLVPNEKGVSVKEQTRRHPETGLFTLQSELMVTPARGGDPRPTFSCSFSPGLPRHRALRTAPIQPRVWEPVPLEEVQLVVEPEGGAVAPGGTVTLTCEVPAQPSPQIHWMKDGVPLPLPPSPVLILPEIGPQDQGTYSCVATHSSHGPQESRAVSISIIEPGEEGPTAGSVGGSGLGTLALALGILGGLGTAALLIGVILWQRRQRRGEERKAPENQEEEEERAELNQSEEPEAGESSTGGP

- Kd: ~16 nM
B1: chitinase 3-like 1 (CHI3L1) (natural protein)
chain: not shown
